Measurements from patent publication US20150166647A1 (VLST, published 2015).

Legend:
[1] = molecular target: T1, human HCC-2/MIP-1δ/CCL15 (human, UniProt Q16663 46-113); test: MSD electrochemiluminescence assay; chemokine coated at 1 µg/mL, 18P7E as unquantitated hybridoma supernatant; background = BSA
T1 sequence: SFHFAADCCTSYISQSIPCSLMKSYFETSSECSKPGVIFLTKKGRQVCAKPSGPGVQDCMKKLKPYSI

[2] = molecular target: T2, ELC; test: as above
T2 construct: also called ELC/MIP-3β/CCL19; CCL19
T2 chemokine: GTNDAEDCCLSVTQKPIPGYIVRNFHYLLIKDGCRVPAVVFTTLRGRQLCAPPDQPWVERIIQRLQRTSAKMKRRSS

[3] = molecular target: T3, MCP-4; test: as above
T3 construct: also called MCP-4/CCL13; CCL13

[4] = molecular target: T4, MCP-3; test: as above
T4 construct: also called MCP-3/CCL7; CCL7

[5] = molecular target: T5, MDC; test: as above
T5 construct: also called MDC/CCL22; CCL22
T5 chemokine: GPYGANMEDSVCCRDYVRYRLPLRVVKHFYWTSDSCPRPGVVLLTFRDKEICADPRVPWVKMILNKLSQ

[6] = molecular target: T6, Fractalkine; test: as above
T6 construct: also called Fractalkine/CX3CL1; CX3CL1
T6 chemokine: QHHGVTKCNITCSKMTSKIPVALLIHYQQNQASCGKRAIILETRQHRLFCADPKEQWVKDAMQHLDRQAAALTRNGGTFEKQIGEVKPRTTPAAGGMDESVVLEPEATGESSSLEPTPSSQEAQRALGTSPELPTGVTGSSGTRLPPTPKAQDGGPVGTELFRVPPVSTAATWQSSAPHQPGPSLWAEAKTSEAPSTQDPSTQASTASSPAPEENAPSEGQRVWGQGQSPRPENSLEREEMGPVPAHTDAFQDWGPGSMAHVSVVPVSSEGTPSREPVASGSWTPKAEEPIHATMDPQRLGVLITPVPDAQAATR

[7] = molecular target: T7, Eotaxin; test: as above
T7 construct: also called Eotaxin/CCL11; CCL11

[8] = molecular target: T8, I-309; test: as above
T8 construct: also called I-309/CCL1; CCL1
T8 chemokine: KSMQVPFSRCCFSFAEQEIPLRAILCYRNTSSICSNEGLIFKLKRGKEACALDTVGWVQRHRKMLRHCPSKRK

[9] = molecular target: T9, human MCP-1/CCL2 (human, UniProt P13500 24-99); test: as above
T9 construct: also called Biotin-MCP1

[10] = molecular target: T10, MCP-2; test: as above
T10 construct: also called MCP-2/CCL8; CCL8
T10 chemokine: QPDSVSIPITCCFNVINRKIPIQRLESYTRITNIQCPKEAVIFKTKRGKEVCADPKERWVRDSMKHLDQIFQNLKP

[11] = molecular target: T11, HCC-4; test: as above
T11 construct: also called HCC-4/CCL16; CCL16
T11 chemokine: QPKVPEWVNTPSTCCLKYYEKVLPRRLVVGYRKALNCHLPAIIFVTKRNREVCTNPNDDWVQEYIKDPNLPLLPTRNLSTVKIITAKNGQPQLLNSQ

[12] = molecular target: T12, human PARC/CCL18 (human, UniProt P55774 21-89); test: as above
T12 sequence: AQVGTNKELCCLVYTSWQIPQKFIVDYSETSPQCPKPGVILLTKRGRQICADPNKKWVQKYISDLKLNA

[13] = molecular target: T13, human HCC-1/CCL14/CCL14a (human, UniProt Q16627 28-93); test: as above
T13 sequence: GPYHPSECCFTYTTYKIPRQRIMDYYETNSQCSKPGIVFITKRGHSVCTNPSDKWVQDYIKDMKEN

[14] = molecular target: T14, human MPIF-1/CCL23 (human, UniProt P55773 46-120); test: as above
T14 sequence: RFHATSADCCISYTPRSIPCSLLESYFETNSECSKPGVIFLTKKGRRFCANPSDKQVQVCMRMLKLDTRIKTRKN

[15] = molecular target: T15, SDF; test: as above
T15 construct: also called SDF-1/CXCL12; CXCL12

[16] = molecular target: T16, IL-8; test: as above
T16 construct: also called IL-8/CXCL8; CXCL8

[17] = molecular target: T17, mouse RANTES/CCL5 (mouse, UniProt P30882 24-91); test: MSD electrochemiluminescence, chemokine coated at 1 µg/mL
T17 construct: also called muRANTES

[18] = molecular target: T18, mouse MIP-1β/CCL4 (mouse, UniProt P14097 24-92); test: as above
T18 construct: also called muMIP-1β
T18 sequence: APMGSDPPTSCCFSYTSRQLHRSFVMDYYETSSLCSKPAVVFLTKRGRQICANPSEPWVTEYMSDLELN

[19] = molecular target: T19, mouse MIP-1α/CCL3 (mouse, UniProt P10855 24-92); test: as above
T19 construct: also called muMIP-1α
T19 sequence: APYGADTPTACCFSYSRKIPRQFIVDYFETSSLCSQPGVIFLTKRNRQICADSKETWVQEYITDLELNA

T7 sequence (chemokine, as listed by the source): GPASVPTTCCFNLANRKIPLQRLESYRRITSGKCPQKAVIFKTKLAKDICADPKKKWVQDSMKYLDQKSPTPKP
T4 sequence (chemokine, as listed by the source): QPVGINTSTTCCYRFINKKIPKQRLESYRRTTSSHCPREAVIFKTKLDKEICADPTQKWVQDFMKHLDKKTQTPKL
T15 sequence (chemokine, as listed by the source): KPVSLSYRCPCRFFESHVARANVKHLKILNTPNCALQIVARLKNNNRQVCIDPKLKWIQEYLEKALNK
T9 sequence (P13500 24-99 limits assumed): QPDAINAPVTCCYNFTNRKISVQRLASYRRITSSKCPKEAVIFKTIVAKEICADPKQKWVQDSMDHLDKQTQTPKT
T17 sequence (P30882 24-91 limits assumed): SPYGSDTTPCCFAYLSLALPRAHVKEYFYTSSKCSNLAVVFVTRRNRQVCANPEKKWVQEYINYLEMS
T16 sequence (chemokine, as listed by the source): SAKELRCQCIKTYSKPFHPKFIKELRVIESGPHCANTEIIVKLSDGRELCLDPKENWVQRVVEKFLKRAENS
T3 sequence (chemokine, as listed by the source): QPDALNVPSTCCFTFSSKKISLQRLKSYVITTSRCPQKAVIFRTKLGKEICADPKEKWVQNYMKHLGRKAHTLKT

B1: monoclonal antibody 18P7E (antibody, V domains shown)
VH: QVQLKESGPGLVAPSQSLSITCTVSGFSLTGYGIHWVRQPPGKGLEWLGVIWPGGGTNYNSALMSRLNISKDNSKSQVFLKMNSLQTDDTAMYYCARGPLITTEVSMDYWGQGTSVTVSS
VL: QAVVTQESALTTSPGETVTLTCRSNTGAVTTSNYANWVQEKPDHLFTGLIGGTNNRAPGVPARFSGSLIGDKAALTITGAQTEDEAIYFCALWYSNHWVFGGGTKLTVLG
notes: also called MAb 18P7E
binding result [1]: no binding (tested: unquantitated hybridoma supernatant)
binding result [2]: no binding (tested: unquantitated hybridoma supernatant)
binding result [3]: no binding (tested: unquantitated hybridoma supernatant)
binding result [4]: no binding (tested: unquantitated hybridoma supernatant)
binding result [5]: no binding (tested: unquantitated hybridoma supernatant)
binding result [6]: no binding (tested: unquantitated hybridoma supernatant)
binding result [7]: no binding (tested: unquantitated hybridoma supernatant)
binding result [8]: no binding (tested: unquantitated hybridoma supernatant)
binding result [9]: no binding (tested: unquantitated hybridoma supernatant)
binding result [10]: no binding (tested: unquantitated hybridoma supernatant)
binding result [11]: no binding (tested: unquantitated hybridoma supernatant)
binding result [12]: no binding (tested: unquantitated hybridoma supernatant)
binding result [13]: no binding (tested: unquantitated hybridoma supernatant)
binding result [14]: no binding (tested: unquantitated hybridoma supernatant)
binding result [15]: no binding (tested: unquantitated hybridoma supernatant)
binding result [16]: no binding (tested: unquantitated hybridoma supernatant)
binding result [17]: no binding (tested: unquantitated hybridoma supernatant)
binding result [18]: no binding (tested: unquantitated hybridoma supernatant)
binding result [19]: no binding (tested: unquantitated hybridoma supernatant)
